Biological target: spike wt

B1: Tri-pdbody (designed binder)
LCB1 mini-binder coupled to a DNA handle that is hybridised to an arm of a 3-helix-bundle DNA nanostructure: DKEWILQKIYEIMRLLDELGHAEASMRVSDLIYEFMKKGDERLLEEAERLLEEVER
notes: also called 3-Arm; 3arm
**Q.** How did the Kd turn out when B1 was run?
**A.** 0.132 nM

Source: patent US20250222126A1 (ARIZONA BOARD OF REGENTS ON BEHALF OF ARIZONA STATE …, published 2025)
